Test results: PMC4987296 (The Journal of Cell Biology, 2016)

Tests used:
GFP-VPS26A (p.K297X) = GFP-VPS26A (p.K297X) (human, UniProt O75436 1-296); test: affinity purification with mass spectrometry
[1] = target: SNX27 PDZ domain in the presence of VPS26A (p.M112V) (rat | human, UniProt Q8K4V4;O75436, p.M112V); test: ITC
[2] = target: SNX27 PDZ domain in the presence of VPS26A (p.K93E) (rat | human, UniProt Q8K4V4;O75436, p.K93E); test: ITC
Sequence of SNX27 PDZ domain in the presence of VPS26A (p.K93E) (O75436 whole entry K93E, the tested form may be a part, one chain of several): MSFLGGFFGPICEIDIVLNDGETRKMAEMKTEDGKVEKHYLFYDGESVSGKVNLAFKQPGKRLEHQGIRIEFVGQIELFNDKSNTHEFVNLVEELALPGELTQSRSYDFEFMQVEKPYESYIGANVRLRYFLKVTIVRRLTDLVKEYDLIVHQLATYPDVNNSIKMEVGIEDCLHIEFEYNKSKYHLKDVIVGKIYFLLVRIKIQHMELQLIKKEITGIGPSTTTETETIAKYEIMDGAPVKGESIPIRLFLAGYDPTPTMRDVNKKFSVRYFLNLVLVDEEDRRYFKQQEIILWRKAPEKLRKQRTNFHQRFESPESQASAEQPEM

Sequence of GFP-VPS26A (p.K297X) (O75436 1-296): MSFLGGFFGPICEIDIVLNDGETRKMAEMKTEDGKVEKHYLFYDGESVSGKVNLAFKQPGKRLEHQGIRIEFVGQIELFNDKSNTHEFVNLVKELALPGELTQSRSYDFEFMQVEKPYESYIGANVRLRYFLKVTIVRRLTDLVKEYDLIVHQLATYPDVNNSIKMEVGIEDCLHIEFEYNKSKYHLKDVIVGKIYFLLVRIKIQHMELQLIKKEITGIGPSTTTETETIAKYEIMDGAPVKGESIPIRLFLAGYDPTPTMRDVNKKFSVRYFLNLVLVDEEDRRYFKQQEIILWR
Sequence of SNX27 PDZ domain in the presence of VPS26A (p.M112V) (O75436 whole entry M112V, the tested form may be a part, one chain of several): as the sequence (O75436 whole entry K93E, the tested form may be a part, one chain of several) above, with E93K, M112V counted along it

SILAC enrichment ratio, mutant over wild-type GFP-VPS26A (GFP-VPS26A (p.K297X))	fold enhancement of binding over SNX27 PDZ domain alone [1] [fold]	fold enhancement of binding over SNX27 PDZ domain alone [2] [fold]	Binder
17.2			PKD2 (natural protein) MVNSSRVQPQQPGDAKRPPAPRAPDPGRLMAGCAAVGASLAAPGGLCEQRGLEIEMQRIRQAAARDPPAGAAASPSPPLSSCSRQAWSRDNPGFEAEEEEEEVEGEEGGMVVEMDVEWRPGSRRSAASSAVSSVGARSRGLGGYHGAGHPSGRRRRREDQGPPCPSPVGGGDPLHRHLPLEGQPPRVAWAERLVRGLRGLWGTRLMEESSTNREKYLKSVLRELVTYLLFLIVLCILTYGMMSSNVYYYTRMMSQLFLDTPVSKTEKTNFKTLSSMEDFWKFTEGSLLDGLYWKMQPSNQTEADNRSFIFYENLLLGVPRIRQLRVRNGSCSIPQDLRDEIKECYDVYSVSSEDRAPFGPRNGTAWIYTSEKDLNGSSHWGIIATYSGAGYYLDLSRTREETAAQVASLKKNVWLDRGTRATFIDFSVYNANINLFCVVRLLVEFPATGGVIPSWQFQPLKLIRYVTTFDFFLAACEIIFCFFIFYYVVEEILEIRIHKLHYFRSFWNCLDVVIVVLSVVAIGINIYRTSNVEVLLQFLEDQNTFPNFEHLAYWQIQFNNIAAVTVFFVWIKLFKFINFNRTMSQLSTTMSRCAKDLFGFAIMFFIIFLAYAQLAYLVFGTQVDDFSTFQECIFTQFRIILGDINFAEIEEANRVLGPIYFTTFVFFMFFILLNMFLAIINDTYSEVKSDLAQQKAEMELSDLIRKGYHKALVKLKLKKNTVDDISESLRQGGGKLNFDELRQDLKGKGHTDAEIEAIFTKYDQDGDQELTEHEHQQMRDDLEKEREDLDLDHSSLPRPMSSRSFPRSLDDSEEDDDEDSGHSSRRRGSISSGVSYEEFQVLVRRVDRMEHSIGSIVSKIDAVIVKLEIMERAKLKRREVLGRLLDGVAEDERLGRDSEIHREQMERLVREELERWESDDAASQISHGLGTPVGLNGQPRPRSSRPSSSQSTEGMEGAGGNGSSNVHV
	> 10	> 10	PPESESKV [Kir3.3 peptide (PPESESKV)]
6.55			DENND4C (natural protein) not shown
